According to FireProtDB (doi:10.1016/0167-4838(93)90045-s):

Settings: Carica papaya, Thermal, DSC, glycine 0.05M, reversible: No

Chain of Chymopapain wild type, P14080 (P14080 whole entry): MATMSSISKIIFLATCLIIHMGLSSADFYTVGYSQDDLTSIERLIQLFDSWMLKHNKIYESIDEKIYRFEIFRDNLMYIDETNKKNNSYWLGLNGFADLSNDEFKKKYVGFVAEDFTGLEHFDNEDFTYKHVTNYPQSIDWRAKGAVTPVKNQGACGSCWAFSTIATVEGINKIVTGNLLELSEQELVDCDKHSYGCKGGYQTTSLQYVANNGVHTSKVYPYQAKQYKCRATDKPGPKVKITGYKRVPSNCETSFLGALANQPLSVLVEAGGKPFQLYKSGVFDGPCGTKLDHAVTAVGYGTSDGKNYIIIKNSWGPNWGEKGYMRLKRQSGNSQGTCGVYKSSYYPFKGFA

With Chymopapain wild type, P14080 the Tm (pH 1.2) was 43 °C, the “unfolding enthalpy (calorimetric)” value (pH 1.2) was 105 kcal/mol and the Tm (pH 1.91) was 56.9 °C. The “unfolding enthalpy (calorimetric)” value (pH 1.91) was 138 kcal/mol, the Tm (pH 2.2) was 62 °C and the “unfolding enthalpy (calorimetric)” value (pH 2.2) was 144 kcal/mol. The Tm (pH 2.35) was 67.9 °C, the “unfolding enthalpy (calorimetric)” value (pH 2.35) was 161 kcal/mol and the Tm (pH 2.56) was 75.2 °C. The “unfolding enthalpy (calorimetric)” value (pH 2.56) was 174 kcal/mol, the Tm (pH 3.18) was 81.1 °C and the “unfolding enthalpy (calorimetric)” value (pH 3.18) was 193 kcal/mol. For the same substance, the Tm (pH 3.45) was 83.7 °C and the “unfolding enthalpy (calorimetric)” value (pH 3.45) was 199 kcal/mol.
